Results taken from paper PMC10715029, “Interaction and assembly of the DNA replication core proteins of Kaposi’s sarcoma-associated herpesvirus” (Microbiology Spectrum, 2023).

What was measured:
Conditions in all cases: partners not purified
GAL4-ORF40/41 [1] = biological target: T1, GAL4-ORF40/41 (Kaposi's sarcoma-associated herpesvirus …, UniProt Q2HR92 1-669); test: two-hybrid; mammalian two-hybrid (GAL4/VP16) in 293T cells, pGal4(5×)-Luc reporter, GAL4 and VP16 fusions coexpressed with further FLAG-tagged core replication proteins, luciferase at 24 h, fold activation over empty vector; radicicol (0.25-1 µM) inhibited the activation by GAL4-ORF56, VP16-ORF44 and F-ORF40/41 dose-dependently
T1 construct: KSHV ORF40/41, primase-associated factor (PAF); source: 293T, transfected, mammalian two-hybrid fusion
T1 sequence: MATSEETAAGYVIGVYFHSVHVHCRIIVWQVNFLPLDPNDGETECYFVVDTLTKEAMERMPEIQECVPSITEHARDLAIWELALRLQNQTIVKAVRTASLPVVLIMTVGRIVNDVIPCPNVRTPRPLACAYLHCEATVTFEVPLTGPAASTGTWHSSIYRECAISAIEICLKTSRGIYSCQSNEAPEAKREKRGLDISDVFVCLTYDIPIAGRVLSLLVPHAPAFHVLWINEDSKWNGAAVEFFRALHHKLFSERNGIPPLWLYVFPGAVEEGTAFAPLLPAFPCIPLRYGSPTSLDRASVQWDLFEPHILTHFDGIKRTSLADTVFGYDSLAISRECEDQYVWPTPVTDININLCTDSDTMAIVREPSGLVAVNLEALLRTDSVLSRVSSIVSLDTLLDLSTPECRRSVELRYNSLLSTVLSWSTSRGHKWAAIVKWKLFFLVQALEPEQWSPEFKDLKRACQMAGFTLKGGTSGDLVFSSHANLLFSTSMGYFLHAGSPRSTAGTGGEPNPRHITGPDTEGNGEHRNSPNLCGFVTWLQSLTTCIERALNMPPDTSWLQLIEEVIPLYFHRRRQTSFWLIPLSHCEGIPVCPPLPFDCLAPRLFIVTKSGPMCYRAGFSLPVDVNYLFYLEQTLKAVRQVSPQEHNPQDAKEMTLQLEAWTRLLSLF

GAL4-ORF56 = biological target: T2, GAL4-ORF56 (Kaposi's sarcoma-associated herpesvirus …, UniProt Q76RG1 1-843); test: as above
T2 construct: KSHV ORF56, primase (PRI); also called GALF4-ORF56; source: 293T, transfected, mammalian two-hybrid fusion
T2 sequence: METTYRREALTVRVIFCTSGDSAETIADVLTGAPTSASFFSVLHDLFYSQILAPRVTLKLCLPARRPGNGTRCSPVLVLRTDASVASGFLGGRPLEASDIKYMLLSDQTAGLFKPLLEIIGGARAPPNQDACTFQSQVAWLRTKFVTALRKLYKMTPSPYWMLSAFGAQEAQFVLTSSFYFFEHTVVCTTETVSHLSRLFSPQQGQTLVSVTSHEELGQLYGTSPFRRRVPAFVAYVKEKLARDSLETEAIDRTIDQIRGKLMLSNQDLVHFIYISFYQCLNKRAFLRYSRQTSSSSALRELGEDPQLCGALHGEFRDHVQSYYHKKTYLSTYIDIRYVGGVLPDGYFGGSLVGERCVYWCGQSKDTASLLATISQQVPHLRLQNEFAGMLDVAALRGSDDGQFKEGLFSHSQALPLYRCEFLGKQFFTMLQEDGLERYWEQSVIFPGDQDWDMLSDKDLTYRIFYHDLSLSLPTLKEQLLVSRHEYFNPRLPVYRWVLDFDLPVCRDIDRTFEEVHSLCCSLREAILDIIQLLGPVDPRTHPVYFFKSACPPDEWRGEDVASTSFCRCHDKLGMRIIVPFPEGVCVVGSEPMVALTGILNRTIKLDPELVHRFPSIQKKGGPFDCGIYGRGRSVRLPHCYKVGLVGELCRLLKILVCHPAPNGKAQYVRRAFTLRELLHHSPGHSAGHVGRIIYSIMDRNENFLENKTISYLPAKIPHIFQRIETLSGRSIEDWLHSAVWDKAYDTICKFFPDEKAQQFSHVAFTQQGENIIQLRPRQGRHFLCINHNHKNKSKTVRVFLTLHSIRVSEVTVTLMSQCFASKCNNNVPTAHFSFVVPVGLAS

GAL4-ORF40/41 [2] = biological target: T1, GAL4-ORF40/41; test: two-hybrid; mammalian two-hybrid (GAL4/VP16) in 293T cells, pGal4(5×)-Luc reporter, only the GAL4 and the VP16 fusion coexpressed, luciferase at 24 h, fold activation over empty vector; radicicol (0.25-1 µM) inhibited the activation by GAL4-ORF59 and VP16-ORF9 dose-dependently

B1: VP16-ORF44 (natural protein)
chain: MDSSEGCTDMDEPSPGFILNMTSDAKVRSVVEQIDRLSNITTSPPEMGWYDLEFDPLEDEGPFLPFSAYVITGTAGAGKSTSVSALHQNLNCLITGATVVAAQNLSRALKSYCPTIYHAFGFKSRHINICQRKVPKVTQSSIEQLQRYELARYWPTVTDIIREFMRKKQKGQYSSLSQSAFRLLCRMGGANLWTSNIIVIDEAGTLSSHILTAVVFFYWFYNSWLDTPLYRNGAVPCIVCVGSPTQTDAFQSVFNHTQQRNEISACDNVLTFLLGKREVADYIRLDENWALFINNKRCTDPQFGHLLKTLEYNLDISPELMDYIDRFVVPKSKILDPLEYAGWTRLFISHQEVKSFLATLHTCLSSNKDAVSTKLFTCPVVCEVFTEPFEEYKRAVGLTHMTPIEWVTKNLFRLSNYSQFADQDMAVVGTYITDASTQITFATKFVKNSYATLTGKTKKCICGFHGSYQRFKSILDGELFIESHSHDNPAYVYSFLSTLLYNAMYSFYAHGVKQGHEEFLRDLRELPVSQELISEMSSEDVLGQEGDTDAFYLTASLPPSPTHAALPTLVAYYSGAKELFCNRLALARRHFGDEFLHSDFSTFTVNIVVRDGVDFVSTSPGLHGLVAYASTIDTYIIQGYTFLPVRFGRPGGQRLSEDLRRKMPSIVVQDSSGFIACLENNVTKMTETLEGGDVFNICCAGDYGISSNLAMTIVKAQGVSLSRVAISFGNHRNIRASLVYVGVSRAIDARYLVMDSNPLKLMDRGDAQSPSSKYIIKALCNPKTTLIY
notes: KSHV ORF44, helicase (HEL); source: 293T, transfected, mammalian two-hybrid fusion
GAL4-ORF40/41 [1]
  fold reporter activation (F-ORF56 coexpressed): ≤ 60 fold
GAL4-ORF56
  fold reporter activation (F-ORF40/41 coexpressed): ≤ 55 fold

B2: VP16-ORF40/41 (natural protein)
chain: MATSEETAAGYVIGVYFHSVHVHCRIIVWQVNFLPLDPNDGETECYFVVDTLTKEAMERMPEIQECVPSITEHARDLAIWELALRLQNQTIVKAVRTASLPVVLIMTVGRIVNDVIPCPNVRTPRPLACAYLHCEATVTFEVPLTGPAASTGTWHSSIYRECAISAIEICLKTSRGIYSCQSNEAPEAKREKRGLDISDVFVCLTYDIPIAGRVLSLLVPHAPAFHVLWINEDSKWNGAAVEFFRALHHKLFSERNGIPPLWLYVFPGAVEEGTAFAPLLPAFPCIPLRYGSPTSLDRASVQWDLFEPHILTHFDGIKRTSLADTVFGYDSLAISRECEDQYVWPTPVTDININLCTDSDTMAIVREPSGLVAVNLEALLRTDSVLSRVSSIVSLDTLLDLSTPECRRSVELRYNSLLSTVLSWSTSRGHKWAAIVKWKLFFLVQALEPEQWSPEFKDLKRACQMAGFTLKGGTSGDLVFSSHANLLFSTSMGYFLHAGSPRSTAGTGGEPNPRHITGPDTEGNGEHRNSPNLCGFVTWLQSLTTCIERALNMPPDTSWLQLIEEVIPLYFHRRRQTSFWLIPLSHCEGIPVCPPLPFDCLAPRLFIVTKSGPMCYRAGFSLPVDVNYLFYLEQTLKAVRQVSPQEHNPQDAKEMTLQLEAWTRLLSLF
notes: KSHV ORF40/41, primase-associated factor (PAF); source: 293T, transfected, mammalian two-hybrid fusion
GAL4-ORF56
  fold reporter activation (F-ORF44 coexpressed): ≤ 280 fold

B3: VP16-ORF6 (natural protein)
chain: MALKGPQTLEENIGSAAPTGPCGYLYAYVTHNFPIGEASLLGNGYPEAKVFSLPLLHGLTVESDFPLNVKAVHKKIDATTASVKLTSYHREAIVFHNTHLFQPIFQGKGLEKLCRESRELFGFSTFVEQQHKGTLWSPEACPQLPCANEIFMAVIVTEGFKERLYGGKLVPVPSQTTPVHIGEHQAFKIPLYDEDLFGPSRAQELCRFYNPDISRYLHDSIFTGIAQALRVKDVSTVIQASERQFVHDQYKIPKLVQAKDFPQCASRGTDGSTLMVIDSLVAELGMSYGLSFIEGPQDSCEVLNYDTWPIFENCETPDARLRALEVWHAEQALHIGAQLFAANSVLYLTRVAKLPQKNQRGDANMYNSFYLQHGLGYLSEATVKENGASAFKGVPVSALDGSSYTLQHLAYASSFSPHLLARMCYYLQFLPHHKNTNSQSYNVVDYVGTAAPSQMCDLCQGQCPAVCINTLFYRMKDRFPPVLSNVKRDPYVITGTAGTYNDLEILGNFATFREREEEGNPVEDAPKYTYWQLCQNITEKLASMGISEGGDALRTLIVDIPSFVKVFKGIDSTVEAELLKFINCMIKNNYNFRENIKSVHHILQFACNVYWQAPCPVFLTLYYKSLLTVIQDICLTSCMMYEQDNPAVGIVPSEWLKMHFQTMWTNFKGACFDKGAITGGELKIVHQSMFCDLFDTDAAIGGMFAPARMQVRIARAMLMVPKTIKIKNRIIFSNSTGAESIQAGFMKPASQRDSYIVGGPYMKFLNALHKTLFPSTKTSALYLWHKIGQTTKNPILPGVSGEHLTELCNYVKASSQAFEEINVLDLVPDTLTSYAKIKLNSSILRACGQTQFYATTLSCLSPVTQLVPAEEYPHVLGPVGLSSPDEYRVKVAGRSVTIVQSTLKQAVSTNGRLRPIITVPLVVNKYTGSNGNTNVFHCANLGYFSGRGVDRNLRPESVPFKKNNVSSMLRKRHVIMTPLVDRLVKRIVGINSGEFEAEAVKRSVQNVLEDRDNPNLPKTVVLELVKHLGSSCASLTEEDVIYYLGPYAVLGDEVLSLLSTVGQAGVPWTAEGVASVIQDIIDDCELQFVGPEEPCLIQGQSVVEELFPSPGVPSLTVGKKRKIASLLSDLDL
notes: source: 293T, transfected, mammalian two-hybrid fusion
GAL4-ORF40/41 [2]
  fold reporter activation: 56 fold
